For the assay, the target named is T1, GST-hEphA5 (1-72 aa) (human, UniProt P54756 304-375).
T1 construct: also called first 72 amino acids of the region 304-467 of the hEphA5 protein fused to GST; not shown: Glutathione S-transferase (GST) fusion partner
T1 sequence: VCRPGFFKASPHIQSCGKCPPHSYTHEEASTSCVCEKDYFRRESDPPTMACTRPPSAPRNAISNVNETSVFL
Briefly: ELISA with decreasing amount of 11C12 on GST fusion proteins. As for the experimental part: FIG. 10: Further 11C12 epitope mapping on human EphA5. ELISA assays were performed with decreasing amount of 11C12 antibody in the presence of various portions of human EphA5 fused to GST. GST fusion proteins included EphA5 sequence from the regions corresponding to amino acids 304-467 (SEQ ID NO:3) and are numbered relative to this region. GST fusion proteins included GST-hEphA5 (1-24 aa) (SEQ ID NO:4); GST-hEphA5 (1-48 aa) (SEQ ID NO:5); GST-hEphA5 (1-72 aa) (SEQ ID NO:6); GST-hEphA5 (1-95 aa) (SEQ ID NO:7); GST-hEphA5 (1-120 aa) (SEQ ID NO:8); GST-hEphA5 (1-144 aa) (SEQ ID NO:9); and GST-hEphA5 (1-164 aa) (SEQ ID NO:10).
Epitope mapping was performed with protein fragments of human EphA5. […] This region is provided as SEQ ID NO:3. Further epitope mapping was performed by ELISA using fusion proteins including EphA5 sequences within the 304-467 region (FIG. 10).

B1: 11C12 monoclonal anti-EphA5 antibody (antibody, mouse IgG1, V domains shown)
VH: EVTLKESGGGLVQPGGSRKLSCAASGFTFSTFGIHWVRQAPEKGLEWVAYISGASTTIYYADTVKGRFTISRDNPKNTLFLQMTSLRSEDTAMYYCARYGTSFPYGLDYWGQGTSVTVSS
VL: DIVMTQSPGSLAVSLGQRATISCKASQSVDYDGDSYMNWYQQKPGQPPKLLIYGASNLESGIPARFSGSGSGTDFTLNIHPVEEEDAASYYCQQSNEDPFTFGSGTKLEIK
notes: Murine IgG1 monoclonal antibody from a hybridoma; also called monoclonal antibody 11C12; 11C12 antibody
As for B1, the binding result is reported as “binds”.

The values are drawn from patent US20140377288A1 (University of Texas, published 2014).
